Assay results taken from US20240270846A1 (published 2024).
Residue numbers refer to the chain shown, from its start. Names and notes keep the numbering of the source.

B1: CE115HA000/GLS3000 F55P one-arm antibody (antibody, human IgG1, kappa, L234A L235A, N297A, name in Kabat numbering)
heavy: QVQLVESGGGVVQPGRSLRLSCAASGFTFSNAWMHWVRQAPGKGLEWVAQIKAKSNNYATYYAESVKGRFTISRDDSKNSLYLQMNSLKTEDTAVYYCRYVHYGAYYGVDAWGQGTTVTVSSASTKGPSVFPLAPSSKSTSGGTAALGCLVKDYFPEPVTVSWNSGALTSGVHTFPAVLQSSGLYSLSSVVTVPSSSLGTQTYICNVNHKPSNTKVDKKVEPKSCDKTHTCPPCPAPEAAGGPSVFLFPPKPKDTLMISRTPEVTCVVVDVSHEDPEVKFNWYVDGVEVHNAKTKPREEQYASTYRVVSVLTVLHQDWLNGKEYKCKVSNKALPAPIEKTISKAKGQPREPQVYTLPPSRCELTKNQVSLSCAVKGFYPSDIAVEWESNGQPENNYKTTPPVLDSDGSFFLVSKLTVDKSRWQQGNVFSCSVMHEALHNHYTQKSLSLSPDYKDDDDK
chain: EPKSSDKTHTCPPCPAPELLGGPSVFLFPPKPKDTLMISRTPEVTCVVVDVSHEDPEVKFNWYVDGVEVHNAKTKPREEQYNSTYRVVSVLTVLHQDWLNGKEYKCKVSNKALPAPIEKTISKAKGQPREPQVCTLPPSRDELTKNQVSLWCLVKGFYPSDIAVEWESNGQPENNYKTTPPVLDSDGSFFLYSKLTVDKSRWQQGNVFSCSVMHEALHNRYTQKSLSLSP
light: DIVMTQSPLSLPVTPGEPASISCRSSQSLVHSNRNTYLHWYQQKPGQAPRLLIYKVSNRPSGVPDRFSGSGSGTDFTLKISRVEAEDVGVYYCGQGTQVPYTFGQGTKLEIKRTVAAPSVFIFPPSDEQLKSGTASVVCLLNNFYPREAKVQWKVDNALQSGNSQESVTEQDSKDSTYSLSSTLTLSKADYEKHKVYACEVTHQGLSSPVTKSFNRGEC
notes: one-arm IgG1
B2: CE115HA000/GLS3000 G91D one-arm antibody (antibody, human IgG1, kappa, L234A L235A, N297A, name in Kabat numbering)
heavy: B1 heavy
chain: B1 chain
light: B1 light with P60F, G96D
notes: one-arm IgG1
B3: CE115HA000/GLS3000 G89M one-arm antibody (antibody, human IgG1, kappa, L234A L235A, N297A, name in Kabat numbering)
heavy: B1 heavy
chain: B1 chain
light: B1 light with P60F, G94M
notes: one-arm IgG1
B4: CE115HA000/GLS3000 G89H one-arm antibody (antibody, human IgG1, kappa, L234A L235A, N297A, name in Kabat numbering)
heavy: B1 heavy
chain: B1 chain
light: B1 light with P60F, G94H
notes: one-arm IgG1
B5: CE115HA000/GLS3000 G89D one-arm antibody (antibody, human IgG1, kappa, L234A L235A, N297A, name in Kabat numbering)
heavy: B1 heavy
chain: B1 chain
light: B1 light with P60F, G94D
notes: one-arm IgG1
B6: CE115HA000/GLS3000 G89A one-arm antibody (antibody, human IgG1, kappa, L234A L235A, N297A, name in Kabat numbering)
heavy: B1 heavy
chain: B1 chain
light: B1 light with P60F, G94A
notes: one-arm IgG1
B7: CE115HA000/GLS3000 F55V one-arm antibody (antibody, human IgG1, kappa, L234A L235A, N297A, name in Kabat numbering)
heavy: B1 heavy
chain: B1 chain
light: B1 light with P60V
notes: one-arm IgG1
B8: CE115HA000/GLS3000 G89E one-arm antibody (antibody, human IgG1, kappa, L234A L235A, N297A, name in Kabat numbering)
heavy: B1 heavy
chain: B1 chain
light: B1 light with P60F, G94E
notes: one-arm IgG1
B9: CE115HA000/GLS3000 G89L one-arm antibody (antibody, human IgG1, kappa, L234A L235A, N297A, name in Kabat numbering)
heavy: B1 heavy
chain: B1 chain
light: B1 light with P60F, G94L
notes: one-arm IgG1
B10: CE115HA000/GLS3000 G89K one-arm antibody (antibody, human IgG1, kappa, L234A L235A, N297A, name in Kabat numbering)
heavy: B1 heavy
chain: B1 chain
light: B1 light with P60F, G94K
notes: one-arm IgG1
B11: CE115HA000/GLS3000 F55S one-arm antibody (antibody, human IgG1, kappa, L234A L235A, N297A, name in Kabat numbering)
heavy: B1 heavy
chain: B1 chain
light: B1 light with P60S
notes: one-arm IgG1
B12: CE115HA000/GLS3000 F55R one-arm antibody (antibody, human IgG1, kappa, L234A L235A, N297A, name in Kabat numbering)
heavy: B1 heavy
chain: B1 chain
light: B1 light with P60R
notes: one-arm IgG1
B13: CE115HA000/GLS3000 H34D one-arm antibody (antibody, human IgG1, kappa, L234A L235A, N297A, name in Kabat numbering)
heavy: B1 heavy
chain: B1 chain
light: B1 light with H39D, P60F
notes: one-arm IgG1
B14: CE115HA000/GLS3000 G89I one-arm antibody (antibody, human IgG1, kappa, L234A L235A, N297A, name in Kabat numbering)
heavy: B1 heavy
chain: B1 chain
light: B1 light with P60F, G94I
notes: one-arm IgG1
B15: CE115HA000/GLS3000 G91A one-arm antibody (antibody, human IgG1, kappa, L234A L235A, N297A, name in Kabat numbering)
heavy: B1 heavy
chain: B1 chain
light: B1 light with P60F, G96A
notes: one-arm IgG1
B16: CE115HA000/GLS3000 F55Y one-arm antibody (antibody, human IgG1, kappa, L234A L235A, N297A, name in Kabat numbering)
heavy: B1 heavy
chain: B1 chain
light: B1 light with P60Y
notes: one-arm IgG1
B17: CE115HA000/GLS3000 F55T one-arm antibody (antibody, human IgG1, kappa, L234A L235A, N297A, name in Kabat numbering)
heavy: B1 heavy
chain: B1 chain
light: B1 light with P60T
notes: one-arm IgG1
B18: CE115HA000/GLS3000 F55Q one-arm antibody (antibody, human IgG1, kappa, L234A L235A, N297A, name in Kabat numbering)
heavy: B1 heavy
chain: B1 chain
light: B1 light with P60Q
notes: one-arm IgG1
B19: CE115HA000/GLS3000 G91E one-arm antibody (antibody, human IgG1, kappa, L234A L235A, N297A, name in Kabat numbering)
heavy: B1 heavy
chain: B1 chain
light: B1 light with P60F, G96E
notes: one-arm IgG1
B20: CE115HA000/GLS3000 F55W one-arm antibody (antibody, human IgG1, kappa, L234A L235A, N297A, name in Kabat numbering)
heavy: B1 heavy
chain: B1 chain
light: B1 light with P60W
notes: one-arm IgG1
B21: CE115HA000/GLS3000 G89F one-arm antibody (antibody, human IgG1, kappa, L234A L235A, N297A, name in Kabat numbering)
heavy: B1 heavy
chain: B1 chain
light: B1 light with P60F, G94F
notes: one-arm IgG1
B22: CE115HA000/GLS3000 G89N one-arm antibody (antibody, human IgG1, kappa, L234A L235A, N297A, name in Kabat numbering)
heavy: B1 heavy
chain: B1 chain
light: B1 light with P60F, G94N
notes: one-arm IgG1
B23: CE115HA000/GLS3000 H34F one-arm antibody (antibody, human IgG1, kappa, L234A L235A, N297A, name in Kabat numbering)
heavy: B1 heavy
chain: B1 chain
light: B1 light with H39F, P60F
notes: one-arm IgG1
B24: CE115HA000/GLS3000 H34E one-arm antibody (antibody, human IgG1, kappa, L234A L235A, N297A, name in Kabat numbering)
heavy: B1 heavy
chain: B1 chain
light: B1 light with H39E, P60F
notes: one-arm IgG1

molecular target: T1, CD3 epsilon homodimer protein (UniProt P07766 23-126); test: SPR (Biacore T200), CD3e homodimer on CM4 chip, antibody as analyte; KD ratio vs unaltered GLS3000;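 further: CD3 epsilon homodimer amine-coupled to the sensor surface, antibodies injected as analyte at 25 °C with HBS-EP+ running buffer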
T1 construct: also called CD3 (CD3 epsilon)
T1 sequence (P07766 23-126): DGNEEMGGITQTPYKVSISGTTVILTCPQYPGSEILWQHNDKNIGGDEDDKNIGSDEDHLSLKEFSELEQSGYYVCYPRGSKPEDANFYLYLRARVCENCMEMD

Compared with B1, B2 is higher in “KD ratio to GLS3000” value: 1.15 ratio for the first, 44.8 ratio for the second.

First: B3
Second: B4
The “KD ratio to GLS3000” value of the first is higher: 1.96 ratio for the first, 1.44 ratio for the second.

First: B5
Second: B6
The “KD ratio to GLS3000” value of the first is higher: 1.96 ratio for the first, 1.1 ratio for the second.

Compared with B7, B8 is higher in “KD ratio to GLS3000” value: 1.12 ratio for the first, 34.6 ratio for the second.

First: B9
Second: B10
The “KD ratio to GLS3000” value of the first is higher: 2.38 ratio for the first, 1.8 ratio for the second.

Compared with B11, B12 is higher in “KD ratio to GLS3000” value: 1.15 ratio for the first, 1.27 ratio for the second.

Going from B13 to B14, the “KD ratio to GLS3000” value falls from 2100 ratio to 1.11 ratio.

Going from B15 to B16, the “KD ratio to GLS3000” value falls from 28.1 ratio to 1.13 ratio.

Going from B17 to B18, the “KD ratio to GLS3000” value falls from 2.42 ratio to 1.09 ratio.

Compared with B19, B20 is lower in “KD ratio to GLS3000” value: 48.5 ratio for the first, 1.72 ratio for the second.

First: B21
Second: B22
The “KD ratio to GLS3000” value of the first is higher: 3.34 ratio for the first, 1.2 ratio for the second.

Compared with B23, B24 is higher in “KD ratio to GLS3000” value: 3.5 ratio for the first, 8.03 ratio for the second.
